In paper PMC12363821 (bioRxiv, 2025):
Numbering of substitutions follows the chain as printed.

T1: CD155 WT (wild-type CD155; poliovirus receptor, PVR) (human), P15151
T1 chain: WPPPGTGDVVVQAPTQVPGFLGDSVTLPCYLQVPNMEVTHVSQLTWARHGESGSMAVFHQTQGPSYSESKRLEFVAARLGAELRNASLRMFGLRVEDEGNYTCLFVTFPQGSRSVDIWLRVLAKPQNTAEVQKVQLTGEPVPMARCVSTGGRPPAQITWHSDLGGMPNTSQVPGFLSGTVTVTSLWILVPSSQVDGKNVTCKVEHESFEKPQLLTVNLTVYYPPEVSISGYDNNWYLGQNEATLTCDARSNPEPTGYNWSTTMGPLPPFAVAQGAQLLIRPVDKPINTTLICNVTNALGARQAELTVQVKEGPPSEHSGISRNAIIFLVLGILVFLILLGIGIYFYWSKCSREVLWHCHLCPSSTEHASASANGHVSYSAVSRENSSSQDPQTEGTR

T2: CD155 Mut (high-affinity mutant variant of CD155, rs1058402, G>A; Ala67Thr) (human, UniProt P15151 21-417, Ala67Thr)
T2 sequence: T1 chain with A47T

B1: Recombinant human TIGIT-Immunoglobulin chimeric protein, Q495A1 22-141 (Fc fusion)
chain: MMTGTIETTGNISAEKGGSIILQCHLSSTTAQVTQVNWEQQDQLLAICNADLGWHISPSFKDRVAPGPGLGLTLQSLTVNDTGEYFCIYHTYPDGTYTGRIFLEVLESSVAEHGARFQIP
modifications: here or on the partner: Alexa Fluor 594 (Zenon human IgG labeling kit)
B2: Recombinant human TIGIT-Immunoglobulin chimeric protein (Fc fusion)
chain: B1 chain
modifications: Alexa Fluor 594 (Zenon human IgG labeling kit)
B3: Recombinant human CD226-Immunoglobulin chimeric protein (Fc fusion)
chain: EEVLWHTSVPFAENMSLECVYPSMGILTQVEWFKIGTQQDSIAIFSPTHGMVIRKPYAERVYFLNSTMASNNMTLFFRNASEDDVGYYSCSLYTYPQGTWQKVIQVVQSDSFEAAVPSNSHIVSEPGKNVTLTCQPQMTWPVQAVRWEKIQPRQIDLLTYCNLVHGRNFTSKFPRQIVSNCSHGRWSVIVIPDVTVSDSGLYRCYLQASAGENETFVMRLTVAEGKTDNQYTLFVA
modifications: Alexa Fluor 594 (Zenon human IgG labeling kit)

Tests used:
Experiment in all cases: flow cytometry on cells
[1] = target: T1, CD155 WT (wild-type CD155; poliovirus …); details: remark: other sources report otherwise
[2] = target: T2, CD155 Mut (high-affinity mutant variant …)
[3] = target: T2, CD155 Mut (high-affinity mutant variant …); remark: listed apart in the source

Binder | fold binding (AUC) against parental Mel1 hPSC [1] | fold binding (AUC) against the CD155 WT sBC line [2] | fold binding (AUC) against parental Mel1 hPSC [3] | fold binding (AUC) against the CD155 WT hPSC line [3]
B1 | 4.25 fold |  |  | 
B2 |  | 1.37 fold | 6.47 fold | 1.52 fold
B3 |  | 1.29 fold |  | 
